Numbering of substitutions follows the chain as printed.
B1: humanized antibody huP2-E8 (antibody, human IgG4 S228P, kappa, F234A L235A, V domains shown)
VH: EVQLVESGGGLVKPGGSLRLSCAASGFTFSDYGIHWVRQAPGKGLEWVAYISSGSSIHNYADTVKGRFTISRDNAKNSLYLQMNSLRAEDTAVYYCARGPNYYGSSYLLVYWGQGTLVTVSS
VL: DIQMTQSPSSLSASVGDRVTITCKASQDVNIAVAWYQQKPGKAPKLLIYSASYRYTGVPSRFSGSGSGTDFTFTISSLQPEDIATYYCQQHYNIPWTFGGGTKVEIKR
notes: Full chains; also called P2-E8H4L1
B2: humanized antibody huP2-G9 (antibody, human IgG1, kappa, L234A L235A, V domains shown)
VH: EVQLQESGPGLVKPSQTLSLTCTVSGSSITSGYYWNWIRQHPGKGLEWIGYLSYDGSNNYNPSLKNLVTISRDTSKNQFSLKLSSVTAADTAVYYCAREGAHYSGTLSWFAYWGQGTLVTVSS
VL: DIQMTQSPSSLSASVGDRVTITCRASENIYSNLAWYQQKPGKSPKLLVYAATNLADGVPSRFSGSGSGTDYTLTISSLQPEDFATYYCQHFWDTPYTFGGGTKVEIKR
notes: Full chains; also called P2-G9H1L2
B3: chimeric antibody ChP2-E7 (antibody, human IgG4 S228P, kappa, F234A L235A, V domains shown)
VH: QVQLQQPGTELVKPGASVKLSCKASGYTFTSYWMHWVKQSPGQGLEWIGNINPSNGGPNYNENFKTKATLTVDKSSSTAYMQLNSLTSEDSAVYYCAGGDYYGGSYLFAYWGQGTLVTVSS
VL: DTVMTQSHKFMSTSVGDRVSVTCKASQDVNIAVAWYQQKPGQSPKLLIYSSSYRYTGVPDRFTGSGSETDFTFTISSVQAEDLAVYYCQQHYTFPYTFGGGTKLEIKR
notes: Murine variable regions with hIgG4(LALA) and CL constant regions; also called M P2-E7
B4: chimeric antibody ChP2-G4 (antibody, human IgG4 S228P, kappa, F234A L235A, V domains shown)
VH: EVQLQQSGPELVKPGASVKMSCKASGYTFTDYNMHWVKQSHGKSLEWIGYINPNNGGTTYNQKFKGKATLTVNKSSSTAYMELRSLTSEDSAVYYCASSEYYGSTFLFAYWGQGTLVTVSS
VL: B3 VL with T2I, S20G, V21I, N30S, S51A, E68G, V85A, T93S, F94T, Y96W
notes: Murine variable regions with hIgG4(LALA) and CL constant regions; also called M P2-G4
B5: chimeric antibody ChP2-B9 (antibody, human IgG4 S228P, kappa, F234A L235A, V domains shown)
VH: EVQLQQSGPELVKPGASVKISCKASGYTFTDYFMNWVKLSHGKSLEWIGDINPNNGGTSYNQRFKDKVTLTVDKSSSTAYMELRSLTSDSSAVYFCARNGYYDSNYLSYFDVWGTGTTVTVSS
VL: DIQMTQSPASLSVSVGETVTITCRASENIYSNLAWYQQKQGKSPQLLVYGATNLADGVPSRFSGSGSGTQYSLKINSLQSEDFGSYYCQHFWDTPYTFGGGTKLEIKR
notes: Murine variable regions with hIgG4(LALA) and CL constant regions; also called M P2-B9
B6: chimeric antibody ChP2-E10 (antibody, human IgG4 S228P, kappa, F234A L235A, V domains shown)
VH: DVQLQESGPGLVKPSQSLSLTCSVTGYSITSGYYWNWIRQFPGNKLEWMGYMSYEGTNNSNPSLKNRISITRDTSKNQFFLKLNSVTTEDTARYYCARERAYYYGTLGAMDYWGQGTSVTVSS
VL: B5 VL with G50A, L78M, Y96F, G100S
notes: Murine variable regions with hIgG4(LALA) and CL constant regions; also called M P2-E10
B7: chimeric antibody ChP2-C2 (antibody, human IgG4 S228P, kappa, F234A L235A, V domains shown)
VH: QVQLKQSGPGLVQPSQSLSITCTVSGFSLTSYGVHWVRQSPGKGLEWLGVIWSGGHTDLNAAFISRLSINKDNSKSQVFFKMNSLQGDDTAIYYCARNGYGGCLDYWGQGTTLTVSS
VL: DIVMTQSHKFMSTSVGDRVSITCKAGQDVSIAVAWYQQKPGQSPQLLIYSASYRYTGVPDRFTGSGSGTDFTFAISSVQAEDLAVYYCQQYYSIPPSFGAGTKLEIKR
notes: Murine variable regions with hIgG4(LALA) and CL constant regions; also called M P2-C2
B8: chimeric antibody ChP2-E11 (antibody, human IgG4 S228P, kappa, F234A L235A, V domains shown)
VH: QVQLQQSGPELVKPGASVKISCKASAYTFTDYYINWVKQRPGQGLEWIGWIFPGSGSTYYNEKFKGKATLTVDKSSSTAYMLVSSLTSEDSAVYFCARSGTLVAPYAMDYWGQGTSVTVSS
VL: SIVMTQTPKFLLVSAGDRVTITCKASQSVSNDVAWYQQKPGQSPKLLIYYTSNRYTGVPDRFTGSGYGTDFTFTISTVQAEDLAVYFCQQDYSFPLTFGAGTKLEIKR
notes: Murine variable regions with hIgG4(LALA) and CL constant regions; also called M P2-E11
B9: humanized antibody huP2-C6 (antibody, human IgG1, kappa, L234A L235A, V domains shown)
VH: EVQLVQSGAEVKKPGASVKVSCKASGYTFTDYYIHWVRQAPGQGLEWMGYIYPDTGYSGYNQKFKGRVTMTVDKSTSTAYMELRSLRSDDTAVYYCTRRGDYSGVHFDYWGQGTTVTVSS
VL: DIVLTQSPDSLAVSLGERATINCRASESVNNYGVGFLHWYQQKPGQPPKLLIYRASTLESGIPDRFSGSGSGTDFTLTISSLQAEDVAVYYCQHSYKDPPWTFGGGTKVEIKR
notes: Full chains; also called P2-C6H7L1

Assays:
[1] = target: T1, LILRA1-His (Acro, LI1-H82E8) (human, UniProt O75019 17-461); assay: ELISA, coated protein 1 µg/mL, antibody 10 µg/mL
T1 construct: Bought protein. 'Human' stands at the head of the list of coated proteins; not shown: His tag

[2] = target: T2, LILRA6-His (Acro, LI6-H82E2) (human, UniProt Q6PI73 24-447); assay: ELISA, coated protein 1 µg/mL, antibody 10 µg/mL
T2 construct: Bought protein. 'Human' stands at the head of the list of coated proteins; not shown: His tag

[3] = target: T3, His-tagged ILT2 protein extracellular domain: ILT2-His (human, UniProt Q8NHL6 24-461); assay: ELISA, coated protein 1 µg/mL, antibody 10 µg/mL
T3 construct: The entry is the whole construct, with the His tag; also called human ILT2 protein

[4] = target: T4, LILRA5-His (Acro, LI5-H82E1) (human, UniProt A6NI73 42-268); assay: ELISA, coated protein 1 µg/mL, antibody 10 µg/mL
T4 construct: Bought protein. 'Human' stands at the head of the list of coated proteins; not shown: His tag

[5] = target: T5, LILRA4-His (SinoBiological, 16058-H08H) (human, UniProt P59901 24-446); assay: ELISA, coated protein 1 µg/mL, antibody 10 µg/mL
T5 construct: Bought protein. 'Human' stands at the head of the list of coated proteins; not shown: His tag

[6] = target: T6, His-tagged ILT3 protein extracellular domain: ILT3-His (human, UniProt Q8NHJ6 22-259); assay: ELISA, coated protein 1 µg/mL, antibody 10 µg/mL
T6 construct: The entry is the whole construct, with the His tag

[7] = target: T7, LILRB5-His (Acro, CDC-H5220) (human, UniProt O75023 24-458, limits assumed); assay: ELISA, coated protein 1 µg/mL, antibody 10 µg/mL
T7 construct: Bought protein. 'Human' stands at the head of the list of coated proteins; not shown: His tag

[8] = target: T8, LILRA2-His (Acro, LI2-H82E9) (human, UniProt Q8N149 24-449); assay: ELISA, coated protein 1 µg/mL, antibody 10 µg/mL
T8 construct: Bought protein. 'Human' stands at the head of the list of coated proteins; not shown: His tag

[9] = target: T9, His-tagged ILT4 protein extracellular domain: ILT4-His (human, UniProt Q8N423 22-460); assay: ELISA, coated protein 1 µg/mL, antibody 10 µg/mL
T9 construct: Expressed in 293 cells; also called human ILT4-His protein

[10] = target: T10, LILRA3-His (Acro, LI3-H82E0) (human, UniProt Q8N6C8 24-439); assay: ELISA, coated protein 1 µg/mL, antibody 10 µg/mL
T10 construct: Bought protein. 'Human' stands at the head of the list of coated proteins; not shown: His tag

[11] = target: T9, His-tagged ILT4 protein extracellular …; assay: SPR (Biacore), antibody captured on Protein A chip, ILT4-His as analyte, 1:1 model
[12] = target: T1, LILRA1-His (Acro, LI1-H82E8); assay: ELISA, coated protein 1 µg/mL
[13] = target: T2, LILRA6-His (Acro, LI6-H82E2); assay: ELISA, coated protein 1 µg/mL
[14] = target: T3, His-tagged ILT2 protein extracellular …; assay: ELISA, coated protein 1 µg/mL
[15] = target: T4, LILRA5-His (Acro, LI5-H82E1); assay: ELISA, coated protein 1 µg/mL
[16] = target: T5, LILRA4-His (SinoBiological, 16058-H08H); assay: ELISA, coated protein 1 µg/mL
[17] = target: T6, His-tagged ILT3 protein extracellular …; assay: ELISA, coated protein 1 µg/mL
[18] = target: T7, LILRB5-His (Acro, CDC-H5220); assay: ELISA, coated protein 1 µg/mL
[19] = target: T8, LILRA2-His (Acro, LI2-H82E9); assay: ELISA, coated protein 1 µg/mL
[20] = target: T10, LILRA3-His (Acro, LI3-H82E0); assay: ELISA, coated protein 1 µg/mL
[21] = target: T11, full-length human ILT4 protein overexpressed on cells (human, UniProt Q8N423 22-597); assay: flow cytometry competition on CHO-S/ILT4 cells; competitor CF647-labelled HLA-G tetramer; Assay 2
T11 construct: also called CHO-S/ILT4; ILT4 stably transfected cell strain

[22] = target: T9, His-tagged ILT4 protein extracellular …; assay: ELISA, coated ILT4-His 1 µg/mL; Assay 2
[23] = target: T9, His-tagged ILT4 protein extracellular …; assay: ELISA, coated ILT4-His 1 µg/mL; Assay 5
[24] = target: T11, full-length human ILT4 protein …; assay: flow cytometry competition on CHO-S/ILT4 cells; competitor CF647-labelled HLA-G tetramer; Assay 3

T8 sequence (Q8N149 24-449 limits assumed): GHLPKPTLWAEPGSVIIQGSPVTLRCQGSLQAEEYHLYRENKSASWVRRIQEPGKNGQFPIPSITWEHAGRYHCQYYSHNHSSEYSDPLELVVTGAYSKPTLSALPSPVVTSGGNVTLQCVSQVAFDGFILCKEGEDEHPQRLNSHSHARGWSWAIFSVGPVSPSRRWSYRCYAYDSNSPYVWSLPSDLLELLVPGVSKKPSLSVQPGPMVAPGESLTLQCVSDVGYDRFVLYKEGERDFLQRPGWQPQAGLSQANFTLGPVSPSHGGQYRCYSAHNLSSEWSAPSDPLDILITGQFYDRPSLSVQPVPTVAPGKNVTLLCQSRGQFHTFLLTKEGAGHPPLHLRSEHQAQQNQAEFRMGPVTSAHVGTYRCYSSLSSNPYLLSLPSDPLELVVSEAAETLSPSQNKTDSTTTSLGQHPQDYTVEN
T1 sequence (O75019 17-461 limits assumed): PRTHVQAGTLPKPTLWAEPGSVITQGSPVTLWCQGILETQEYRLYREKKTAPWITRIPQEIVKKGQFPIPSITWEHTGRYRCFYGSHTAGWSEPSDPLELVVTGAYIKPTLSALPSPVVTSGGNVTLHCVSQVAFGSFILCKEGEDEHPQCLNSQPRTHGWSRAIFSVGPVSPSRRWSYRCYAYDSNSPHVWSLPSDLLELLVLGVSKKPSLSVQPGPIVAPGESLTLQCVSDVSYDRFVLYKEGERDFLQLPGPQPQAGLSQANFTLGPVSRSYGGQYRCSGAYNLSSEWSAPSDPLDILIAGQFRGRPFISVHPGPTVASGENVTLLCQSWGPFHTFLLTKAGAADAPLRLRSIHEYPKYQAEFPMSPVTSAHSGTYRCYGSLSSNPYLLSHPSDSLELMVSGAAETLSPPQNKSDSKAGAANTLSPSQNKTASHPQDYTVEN
T2 sequence (Q6PI73 24-447 limits assumed): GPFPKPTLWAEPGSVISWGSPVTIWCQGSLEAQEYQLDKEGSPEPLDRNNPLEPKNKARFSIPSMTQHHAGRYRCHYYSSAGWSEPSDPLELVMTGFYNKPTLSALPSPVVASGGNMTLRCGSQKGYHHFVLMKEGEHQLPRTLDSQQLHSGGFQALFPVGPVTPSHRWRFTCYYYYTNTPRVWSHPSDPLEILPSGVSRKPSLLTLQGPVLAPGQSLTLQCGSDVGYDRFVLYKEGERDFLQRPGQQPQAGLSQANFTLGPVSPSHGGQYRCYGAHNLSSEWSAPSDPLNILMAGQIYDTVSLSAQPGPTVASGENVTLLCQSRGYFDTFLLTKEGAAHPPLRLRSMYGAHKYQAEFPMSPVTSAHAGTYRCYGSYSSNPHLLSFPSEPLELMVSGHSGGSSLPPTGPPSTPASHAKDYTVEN
T10 sequence (Q8N6C8 24-439 limits assumed): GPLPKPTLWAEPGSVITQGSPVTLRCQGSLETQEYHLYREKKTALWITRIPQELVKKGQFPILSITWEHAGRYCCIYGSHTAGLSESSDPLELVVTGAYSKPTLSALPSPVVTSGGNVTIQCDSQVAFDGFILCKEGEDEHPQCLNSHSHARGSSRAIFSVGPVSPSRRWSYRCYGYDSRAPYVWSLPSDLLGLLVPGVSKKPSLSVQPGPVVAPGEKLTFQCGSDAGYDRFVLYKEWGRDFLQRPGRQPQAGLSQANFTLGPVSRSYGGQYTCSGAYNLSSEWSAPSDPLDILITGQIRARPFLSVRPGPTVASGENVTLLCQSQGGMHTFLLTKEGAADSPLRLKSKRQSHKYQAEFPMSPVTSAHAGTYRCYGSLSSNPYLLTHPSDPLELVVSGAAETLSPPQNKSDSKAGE
T3 sequence (Q8NHL6 other isoform, or with tags, fused parts or gaps): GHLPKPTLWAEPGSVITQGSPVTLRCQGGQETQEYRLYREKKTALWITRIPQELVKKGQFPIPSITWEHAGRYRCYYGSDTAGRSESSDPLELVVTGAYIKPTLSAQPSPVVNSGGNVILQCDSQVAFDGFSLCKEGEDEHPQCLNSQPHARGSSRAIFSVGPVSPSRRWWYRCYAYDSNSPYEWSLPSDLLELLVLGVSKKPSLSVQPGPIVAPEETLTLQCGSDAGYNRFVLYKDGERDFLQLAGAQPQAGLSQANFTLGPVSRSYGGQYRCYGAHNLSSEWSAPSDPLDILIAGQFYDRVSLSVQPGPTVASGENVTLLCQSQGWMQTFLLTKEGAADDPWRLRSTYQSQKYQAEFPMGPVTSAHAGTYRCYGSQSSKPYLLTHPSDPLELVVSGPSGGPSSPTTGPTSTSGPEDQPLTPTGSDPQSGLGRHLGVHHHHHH
T4 sequence (A6NI73 42-268 limits assumed): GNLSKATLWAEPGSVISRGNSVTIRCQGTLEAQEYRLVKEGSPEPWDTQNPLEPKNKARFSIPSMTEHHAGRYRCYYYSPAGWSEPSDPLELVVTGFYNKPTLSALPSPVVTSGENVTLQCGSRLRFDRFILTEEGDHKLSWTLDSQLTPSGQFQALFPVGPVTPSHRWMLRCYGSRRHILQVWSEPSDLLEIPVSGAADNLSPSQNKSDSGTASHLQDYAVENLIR
T7 sequence (O75023 24-458 limits assumed): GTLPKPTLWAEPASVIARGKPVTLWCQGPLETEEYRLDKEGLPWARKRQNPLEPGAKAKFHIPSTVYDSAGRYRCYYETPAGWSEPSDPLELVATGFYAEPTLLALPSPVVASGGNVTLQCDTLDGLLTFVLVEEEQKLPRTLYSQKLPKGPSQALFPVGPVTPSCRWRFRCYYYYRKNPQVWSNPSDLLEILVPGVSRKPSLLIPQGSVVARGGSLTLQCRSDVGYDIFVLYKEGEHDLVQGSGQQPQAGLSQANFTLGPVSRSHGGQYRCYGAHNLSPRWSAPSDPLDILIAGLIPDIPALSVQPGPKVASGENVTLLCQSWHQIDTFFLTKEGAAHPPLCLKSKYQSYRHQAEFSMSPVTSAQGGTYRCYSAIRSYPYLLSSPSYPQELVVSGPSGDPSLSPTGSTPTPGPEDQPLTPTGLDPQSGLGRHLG
T5 sequence (P59901 24-446 limits assumed): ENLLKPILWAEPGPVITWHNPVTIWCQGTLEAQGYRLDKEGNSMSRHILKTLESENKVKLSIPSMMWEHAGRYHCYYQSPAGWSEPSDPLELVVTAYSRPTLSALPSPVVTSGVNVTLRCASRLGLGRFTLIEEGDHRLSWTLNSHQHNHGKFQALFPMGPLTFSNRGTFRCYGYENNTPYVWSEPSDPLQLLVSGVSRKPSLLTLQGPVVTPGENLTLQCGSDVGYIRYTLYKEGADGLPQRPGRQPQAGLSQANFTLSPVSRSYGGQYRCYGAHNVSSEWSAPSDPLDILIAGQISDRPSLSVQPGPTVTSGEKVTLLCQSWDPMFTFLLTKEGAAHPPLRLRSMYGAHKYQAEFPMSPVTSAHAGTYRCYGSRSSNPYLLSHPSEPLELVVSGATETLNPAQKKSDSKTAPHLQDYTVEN
T9 sequence (Q8N423 other isoform, or with tags, fused parts or gaps limits assumed): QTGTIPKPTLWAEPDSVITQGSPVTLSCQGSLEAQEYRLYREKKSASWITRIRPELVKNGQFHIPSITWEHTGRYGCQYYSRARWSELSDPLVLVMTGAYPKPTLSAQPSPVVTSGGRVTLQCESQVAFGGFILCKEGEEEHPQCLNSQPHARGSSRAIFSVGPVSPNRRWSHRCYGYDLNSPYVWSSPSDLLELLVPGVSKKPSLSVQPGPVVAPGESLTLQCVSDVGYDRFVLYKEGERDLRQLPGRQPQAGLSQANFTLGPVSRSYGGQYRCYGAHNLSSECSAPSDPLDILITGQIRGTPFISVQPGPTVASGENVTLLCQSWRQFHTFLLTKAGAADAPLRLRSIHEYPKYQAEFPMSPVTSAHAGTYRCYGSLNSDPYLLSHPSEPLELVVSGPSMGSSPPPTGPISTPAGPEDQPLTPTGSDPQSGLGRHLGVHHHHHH
T11 sequence (Q8N423 other isoform, or with tags, fused parts or gaps limits assumed): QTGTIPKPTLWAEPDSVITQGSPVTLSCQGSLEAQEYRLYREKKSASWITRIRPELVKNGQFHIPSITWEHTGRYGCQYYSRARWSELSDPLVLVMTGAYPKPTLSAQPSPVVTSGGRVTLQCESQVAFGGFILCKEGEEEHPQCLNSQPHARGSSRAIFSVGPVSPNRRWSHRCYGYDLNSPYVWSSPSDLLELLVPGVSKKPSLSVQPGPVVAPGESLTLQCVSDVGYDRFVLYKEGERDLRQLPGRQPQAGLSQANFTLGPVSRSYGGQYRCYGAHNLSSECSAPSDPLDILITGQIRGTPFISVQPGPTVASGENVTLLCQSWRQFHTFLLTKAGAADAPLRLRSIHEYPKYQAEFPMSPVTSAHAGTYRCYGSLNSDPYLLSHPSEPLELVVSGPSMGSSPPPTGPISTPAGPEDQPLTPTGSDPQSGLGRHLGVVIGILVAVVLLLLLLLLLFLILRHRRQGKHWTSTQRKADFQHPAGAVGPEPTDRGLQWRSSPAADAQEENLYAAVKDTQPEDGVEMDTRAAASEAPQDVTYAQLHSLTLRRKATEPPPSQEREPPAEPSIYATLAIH

Binder	absorbance at 450 nm [1] [absorbance at 450 nm]	absorbance at 450 nm [2] [absorbance at 450 nm]	absorbance at 450 nm [3] [absorbance at 450 nm]	absorbance at 450 nm [4] [absorbance at 450 nm]	absorbance at 450 nm [5] [absorbance at 450 nm]	absorbance at 450 nm [6] [absorbance at 450 nm]	absorbance at 450 nm [7] [absorbance at 450 nm]	absorbance at 450 nm [8] [absorbance at 450 nm]	absorbance at 450 nm [9] [absorbance at 450 nm]	absorbance at 450 nm [10] [absorbance at 450 nm]	Kd [11] [nM]	koff [11] [s⁻¹]	kon [11] [M⁻¹ s⁻¹]	binding result [12]	binding result [13]	binding result [14]	binding result [15]	binding result [16]	binding result [17]	binding result [18]	also measured
B1	0.0483	0.0461	0.0569	0.0467	0.0504	0.063	0.0489	0.0516	0.954	0.0467	0.839	0.000186	222000	no binding (tested: 10 µg/mL)	no binding (tested: 10 µg/mL)	no binding (tested: 10 µg/mL)	no binding (tested: 10 µg/mL)	no binding (tested: 10 µg/mL)	no binding (tested: 10 µg/mL)	no binding (tested: 10 µg/mL)	binding result [19]: no binding (tested: 10 µg/mL); binding result [20]: no binding (tested: 10 µg/mL)
B2	0.0457	0.0449	0.0541	0.0441	0.0674	0.0564	0.0533	0.0759	1.77	0.0461	0.109	0.000109	999000	no binding (tested: 10 µg/mL)	no binding (tested: 10 µg/mL)	no binding (tested: 10 µg/mL)	no binding (tested: 10 µg/mL)	no binding (tested: 10 µg/mL)	no binding (tested: 10 µg/mL)	no binding (tested: 10 µg/mL)	IC50 [21]: 0.085 µg/mL; binding result [19]: no binding (tested: 10 µg/mL); binding result [20]: no binding (tested: 10 µg/mL)
B3	–	–	–	–	–	–	–	–	–	–	–	–	–	–	–	–	–	–	–	–	EC50 [22]: 0.0729 µg/mL; Top [22]: 2 absorbance at 450 nm
B4	–	–	–	–	–	–	–	–	–	–	–	–	–	–	–	–	–	–	–	–	EC50 [22]: 0.0621 µg/mL; Top [22]: 1.83 absorbance at 450 nm
B5	–	–	–	–	–	–	–	–	–	–	–	–	–	–	–	–	–	–	–	–	EC50 [23]: 0.0487 µg/mL; Top [23]: 1.53 absorbance at 450 nm
B6	–	–	–	–	–	–	–	–	–	–	–	–	–	–	–	–	–	–	–	–	EC50 [23]: 0.0658 µg/mL; Top [23]: 1.65 absorbance at 450 nm
B7	–	–	–	–	–	–	–	–	–	–	–	–	–	–	–	–	–	–	–	–	EC50 [23]: 0.0493 µg/mL; Top [23]: 1.16 absorbance at 450 nm
B8	–	–	–	–	–	–	–	–	–	–	–	–	–	–	–	–	–	–	–	–	EC50 [22]: 0.0428 µg/mL; Top [22]: 1.98 absorbance at 450 nm
B9	0.0535	0.0606	0.0621	0.0598	0.0605	0.149	0.0563	0.0565	2.69	0.0613	0.0543	6.58e-05	1.21e+06	no binding (tested: 10 µg/mL)	no binding (tested: 10 µg/mL)	no binding (tested: 10 µg/mL)	no binding (tested: 10 µg/mL)	no binding (tested: 10 µg/mL)	no binding (tested: 10 µg/mL)	no binding (tested: 10 µg/mL)	IC50 [24]: 0.072 µg/mL; binding result [19]: no binding (tested: 10 µg/mL); binding result [20]: no binding (tested: 10 µg/mL)

Source: EP4585618A1 (Jiangsu Hengrui Pharmaceuticals Co., Ltd., dated 2025)
